# Biological target: HLA-A*11:01
# Test: IEDB peptide-MHC binding, cellular MHC/competitive/fluorescence; ≥ and ≤ were set here for values at or beyond the usual limits of such assays
# Conditions: source organism: Hepatitis B virus
row,Sequence,IC50 [µM]
1,LLPIFFCLWV,≥ 70
2,LLVPFVQWFV,8.09
3,LLWFHISCL,32.5
4,SLYADSPSV,≥ 70

# Same assay, conditions: source organism: Mammarenavirus juninense
row,Sequence,IC50 [µM]
1,ACQEAVKLK,6.7

# Biological target: HLA-A*02:03
# Test: as above
# Conditions: source organism: Hepatitis B virus
row,Sequence,IC50 [µM]
1,CLRRFIIFL,14.6
2,LLVPFVQWFV,10.5

# Same assay, conditions: source organism: Vaccinia virus WR
row,Sequence,IC50 [µM]
1,EQRRSTIFDI,11.5
2,LQDIVNEHDI,38.2
3,LQQNNSFII,5.17

# Biological target: HLA-A*24:02
# Test: as above
# Conditions: source organism: Vaccinia virus WR
row,Sequence,IC50 [µM]
1,CQCTVQEFI,29
2,EQRRSTIFDI,≥ 70
3,LQDIVNEHDI,≥ 70
4,QQFANVISKI,≥ 70
5,SQAKKPEVRI,32.1
6,TQVKELGIAI,≥ 70
7,VQSVLRDISI,25.4
8,VQTIVFIWFI,≥ 70
9,YQNEVTPEYI,≥ 70

# Biological target: HLA-A*30:02
# Test: as above
# Conditions: source organism: Vaccinia virus WR
row,Sequence,IC50 [µM]
1,CQCTVQEFI,≥ 70
2,EQRRSTIFDI,≥ 70
3,FQESFYEDI,≥ 70
4,LQDIVNEHDI,≥ 70
5,LQQNNSFII,40.8
6,QQFANVISKI,9.29
7,SQAKKPEVRI,≥ 70
8,TQVKELGIAI,≥ 70
9,VQSVLRDISI,19.7
10,VQTIVFIWFI,13.3
11,VQYRILPMII,7.85
12,YQNEVTPEYI,8.74

# Biological target: HLA-A*31:01
# Test: as above
# Conditions: source organism: Hepatitis B virus
row,Sequence,IC50 [µM]
1,CLRRFIIFL,6.65
2,HLYSHPIIL,46
3,LLPIFFCLWV,6.23
4,LLWFHISCL,8.85
5,SLYADSPSV,14.6

# Same assay, conditions: source organism: Mammarenavirus juninense
row,Sequence,IC50 [µM]
1,ACQEAVKLK,≥ 70

# Biological target: HLA-A*68:01
# Test: as above
# Conditions: source organism: Hepatitis B virus
row,Sequence,IC50 [µM]
1,CLIFLLVLL,34.9
2,CLRRFIIFL,≥ 70
3,FLFILLLCL,26.9
4,HLYSHPIIL,≥ 70
5,ILLLCLIFL,30.3
6,ILRGTSFVYV,≥ 70
7,LLDYQGMLPV,≥ 70
8,LLPIFFCLWV,51
9,LLVPFVQWFV,45.2
10,LLWFHISCL,≥ 70
11,SLYADSPSV,≥ 70

# Same assay, conditions: source organism: Mammarenavirus juninense
row,Sequence,IC50 [µM]
1,ACQEAVKLK,≥ 70

# Biological target: HLA-A*01:01
# Test: as above
# Conditions: source organism: Vaccinia virus WR
row,Sequence,IC50 [µM]
1,AQQFCQYLI,32.4
2,CQCTVQEFI,28.5
3,EQRRSTIFDI,17.7
4,FQESFYEDI,≥ 70
5,LQDIVNEHDI,≥ 70
6,LQQNNSFII,40.2
7,QQFANVISKI,≥ 70
8,RQVSVKLLI,23.8
9,SQAKKPEVRI,≥ 70
10,TQVKELGIAI,≥ 70
11,VQSVLRDISI,15.6
12,VQTIVFIWFI,5.13
13,VQYRILPMII,34.6
14,YQNEVTPEYI,≥ 70

# Biological target: HLA-A*68:02
# Test: as above
# Conditions: source organism: Hepatitis B virus
row,Sequence,IC50 [µM]
1,CLIFLLVLL,7.11
2,CLRRFIIFL,48.8
3,FIIFLFILL,10.1
4,HLYSHPIIL,22.7
5,ILLLCLIFL,12.1
6,ILRGTSFVYV,37.2
7,LLPIFFCLWV,≥ 70
8,LLWFHISCL,≥ 70
9,SLYADSPSV,13.7

# Same assay, conditions: source organism: Vaccinia virus WR
row,Sequence,IC50 [µM]
1,FQESFYEDI,36.8
2,LQDIVNEHDI,≥ 70
3,LQQNNSFII,69.8
4,RQVSVKLLI,15.1
5,VQYRILPMII,21.4
6,YQNEVTPEYI,8.57

# Biological target: HLA-A*03:01
# Test: as above
# Conditions: source organism: Mammarenavirus juninense
row,Sequence,IC50 [µM]
1,ACQEAVKLK,16.7

# Biological target: HLA-A*26:01
# Test: as above
# Conditions: source organism: Vaccinia virus WR
row,Sequence,IC50 [µM]
1,AQQFCQYLI,49
2,CQCTVQEFI,24.8
3,EQRRSTIFDI,≥ 70
4,FQESFYEDI,≥ 70
5,LQDIVNEHDI,≥ 70
6,LQQNNSFII,11.5
7,QQFANVISKI,≥ 70
8,RQVSVKLLI,6.34
9,SQAKKPEVRI,≥ 70
10,TQVKELGIAI,49.6
11,VQSVLRDISI,6.66
12,VQTIVFIWFI,16
13,VQYRILPMII,≥ 70
14,YQNEVTPEYI,≥ 70

# Biological target: HLA-A*29:02
# Test: as above
# Conditions: source organism: Vaccinia virus WR
row,Sequence,IC50 [µM]
1,AQQFCQYLI,45.4
2,CQCTVQEFI,20.5
3,EQRRSTIFDI,≥ 70
4,FQESFYEDI,58.2
5,LQDIVNEHDI,≥ 70
6,LQQNNSFII,18.6
7,QQFANVISKI,≥ 70
8,RQVSVKLLI,≥ 70
9,SQAKKPEVRI,≥ 70
10,TQVKELGIAI,≥ 70
11,VQSVLRDISI,≥ 70
12,VQTIVFIWFI,20.3
13,VQYRILPMII,≥ 70
14,YQNEVTPEYI,19.4

# Biological target: HLA-A*02:01
# Test: as above
# Conditions: source organism: Vaccinia virus WR
row,Sequence,IC50 [µM]
1,EQRRSTIFDI,22.5
2,FQESFYEDI,12.9
3,LQDIVNEHDI,23.3
4,QQFANVISKI,7.32
5,SQAKKPEVRI,46.3
6,VQYRILPMII,9.33

# Biological target: HLA-A*23:01
# Test: as above
# Conditions: source organism: Vaccinia virus WR
row,Sequence,IC50 [µM]
1,CQCTVQEFI,44.5
2,EQRRSTIFDI,50.8
3,LQDIVNEHDI,≥ 70
4,LQQNNSFII,8.91
5,QQFANVISKI,12.2
6,SQAKKPEVRI,51.7
7,TQVKELGIAI,38.6
8,VQTIVFIWFI,32.8
9,YQNEVTPEYI,26.9

# Biological target: HLA-A*02:02
# Test: as above
# Conditions: source organism: Hepatitis B virus
row,Sequence,IC50 [µM]
1,CLRRFIIFL,7.11
2,FLFILLLCL,7.02

# Same assay, conditions: source organism: Vaccinia virus WR
row,Sequence,IC50 [µM]
1,EQRRSTIFDI,23
2,LQDIVNEHDI,7.63
3,LQQNNSFII,11.7
4,RQVSVKLLI,17.9
5,SQAKKPEVRI,10.7
6,VQYRILPMII,10.1

# Biological target: HLA-A*33:01
# Test: as above
# Conditions: source organism: Mammarenavirus juninense
row,Sequence,IC50 [µM]
1,ACQEAVKLK,≥ 70
